# From patent publication US8030025B2
# Where “and” joins values, the source holds several entries; their conditions need not be identical. Equal entries are not always repeated.
# Legend:
# [1] = biological target: Tie2 in mouse lung endothelium (mouse) (UniProt Q02858)
# [2] = biological target: biotinylated human angiopoietin 1 (human) (UniProt Q15389); experiment: angiopoietin:Tie2 neutralization HTRF; biotin-hAng1 vs Tie2-APC
# [3] = biological target: biotinylated human angiopoietin 2 (human) (UniProt O15123); experiment: angiopoietin:Tie2 neutralization HTRF; biotin-hAng2 vs Tie2-APC
# Human Ang1 (human) [4] = biological target: Human Ang1 (human) (UniProt Q15389); experiment: angiopoietin:Tie2 neutralization ELISA; coated angiopoietin vs hTie2-Fc
# Rabbit Ang1 (rabbit) [5] = biological target: Rabbit Ang1 (rabbit) (UniProt G1SK98); experiment: as above
# [6] = biological target: Cyno Ang1 (cynomolgus monkey); experiment: as above
# Human Ang2 (human) [7] = biological target: Human Ang2 (human) (UniProt O15123); experiment: as above
# [8] = biological target: Cyno Ang2 (cynomolgus monkey); experiment: as above
# Murine Ang2 (mouse) [9] = biological target: Murine Ang2 (mouse) (UniProt O35608); experiment: as above
# Murine Ang1 (mouse) [10] = biological target: Murine Ang1 (mouse) (UniProt O08538); experiment: as above
# [11] = biological target: biotinylated human angiopoietin 1 (human) (UniProt Q15389); experiment: HTRF neutralization; biotin-hAng1 vs huTie-2-Fc-APC
# Human Ang1 (human) [12] = biological target: Human Ang1 (human) (UniProt Q15389); experiment: neutralization ELISA; coated angiopoietin vs Tie2-Fc
# Rabbit Ang1 (rabbit) [13] = biological target: Rabbit Ang1 (rabbit) (UniProt G1SK98); experiment: as above
# [14] = biological target: Cyno Ang1 (cynomolgus monkey); experiment: as above
# Human Ang2 (human) [15] = biological target: Human Ang2 (human) (UniProt O15123); experiment: as above
# [16] = biological target: Cyno Ang2 (cynomolgus monkey); experiment: as above
# Rabbit Ang2 (rabbit) = Rabbit Ang2 (rabbit) (UniProt G1T9B3); experiment: as above
# Murine Ang2 (mouse) [17] = biological target: Murine Ang2 (mouse) (UniProt O35608); experiment: as above
# Murine Ang1 (mouse) [18] = biological target: Murine Ang1 (mouse) (UniProt O08538); experiment: as above
# [19] = biological target: biotinylated human angiopoietin 2 (human) (UniProt O15123); experiment: HTRF neutralization; biotin-hAng2 vs huTie-2-Fc-APC
substance,measurement,setting,value
recombinant Ang1 (R&D Systems Inc.) (ligand),Tie2 phosphorylation in mouse lung endothelium,[1],5 fold
L1-7(N) (Fc fusion),IC50,[2],> 10 µM
same,IC50,[3],0.064 nM
Fc,IC50,Human Ang1 (human) [4],> 10 µM
same,IC50,Rabbit Ang1 (rabbit) [5],> 10 µM
same,IC50,[6],> 10 µM
same,IC50,Human Ang2 (human) [7],> 10 µM
same,IC50,[8],> 10 µM
same,IC50,Murine Ang2 (mouse) [9],> 10 µM
same,IC50,Murine Ang1 (mouse) [10],> 10 µM
same,IC50,[2],> 10 µM
same,IC50,[3],> 10000 nM
AMG 386 (Fc fusion),IC50,[11],2.6 nM and 3.9 nM
same,IC90,[11],106 nM and 278 nM
same,IC50,Human Ang1 (human) [12],1.2 nM
same,IC50,Rabbit Ang1 (rabbit) [13],4.3 nM
same,IC50,[14],2.9 nM
same,IC50,Human Ang2 (human) [15],0.12 nM
same,IC50,[16],0.17 nM
same,IC50,Rabbit Ang2 (rabbit),0.1 nM
same,IC50,Murine Ang2 (mouse) [17],0.1 nM
same,IC50,Murine Ang1 (mouse) [18],2.7 nM
same,IC50,[2],0.0062 µM
same,IC50,[19],0.03 nM
same,IC90,[19],0.13 nM and 0.15 nM
same,IC50,[3],0.029 nM
